T1: blue laccase (Sclerotinia sclerotiorum, UniProt A7EM18)
T1 construct: gene SS1G_06365; native, secreted, purified from culture medium; ~66 kDa glycoprotein; blue form (phenolics removed by preparative native PAGE or low-coloured medium)
T1 sequence (A7EM18 28-577): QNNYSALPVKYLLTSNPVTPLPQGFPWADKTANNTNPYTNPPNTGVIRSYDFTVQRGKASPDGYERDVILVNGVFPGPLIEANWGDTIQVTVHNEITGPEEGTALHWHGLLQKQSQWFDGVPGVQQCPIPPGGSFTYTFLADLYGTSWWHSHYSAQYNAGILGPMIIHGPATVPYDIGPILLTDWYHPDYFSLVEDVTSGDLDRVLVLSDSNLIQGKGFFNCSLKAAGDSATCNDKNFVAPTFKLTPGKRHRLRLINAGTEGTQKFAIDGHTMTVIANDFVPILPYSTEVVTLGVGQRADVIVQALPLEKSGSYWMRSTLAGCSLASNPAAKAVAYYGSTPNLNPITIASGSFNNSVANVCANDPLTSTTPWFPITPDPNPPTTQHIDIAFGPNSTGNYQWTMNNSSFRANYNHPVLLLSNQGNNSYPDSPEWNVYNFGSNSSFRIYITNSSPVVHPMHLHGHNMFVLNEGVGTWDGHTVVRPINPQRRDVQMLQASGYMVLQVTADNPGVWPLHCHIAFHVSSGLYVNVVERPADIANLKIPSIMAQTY

B1: yellow laccase (Sclerotinia sclerotiorum 1980 UF-70) (protein)
chain: T1 sequence (A7EM18 28-577)
notes: native, secreted, purified from culture medium; ~66 kDa; as-isolated yellow form, natural covalent phenolic adduct of the same protein as P1

Assays:
[1] = biological target: T1, blue laccase; experiment: UV-vis after desalting; format: binding; conditions: covalent, adduct of the radical product formed on turnover, site not identified; 25 mM MES pH 6.3
[2] = substrate: CCn1c(=NN=c2sc3cc(S(=O)(=O)O)ccc3n2CC)sc2cc(S(=O)(=O)O)ccc21; experiment: purified protein; format: biochemical, Sclerotinia sclerotiorum; conditions: 50 mM acetate pH 4, relative SD 5–20%
[3] = substrate: Cc1cc(-c2cc(C)c(N)c(C)c2)cc(C)c1N; experiment: purified protein; format: biochemical, Sclerotinia sclerotiorum; conditions: 50 mM acetate pH 4, relative SD 5–20%

Row | Molecule | UV-vis after desalting [1] | Km [2] [µM] | kcat [2] [s⁻¹] | Km [3] [µM] | kcat [3] [s⁻¹]
1 | COc1ccccc1O [guaiacol] | purple with ABTS, red with guaiacol, orange with TMB | – | – | – | –
2 | Cc1cc(-c2cc(C)c(N)c(C)c2)cc(C)c1N [TMB, 3,3’,5,5’-tetramethylbenzidine] | purple with ABTS, red with guaiacol, orange with TMB | – | – | – | –
3 | B1 | – | 14.1 | 5.7 | 2.70 | 3.1

From article PMC6974248, ““Yellow” laccase from Sclerotinia sclerotiorum is a blue laccase that enhances its substrate affinity by forming a reversible tyrosyl-product adduct” (PLoS ONE, 2020)
